The supplement of paper PMC7877785
± gives the uncertainty stated by the source.

Test: self-splicing fitness, log relative to wild type (ln ratio); higher = more splicing; Tetrahymena group I intron in knt gene, E. coli kanamycin selection, DiMSum; sequences stand for … in CUCUCU…GGAGGGAAAAGUUAUCAGGCAUGCACCUGGUAGCUAGUCUUUAAACCAAUAGAUUGCAUCGGUUUAAAAGGCAAGACCGUCAAAUUGCGGGAAAGGGGUCAACAGCCGUUCAGUACCAAGUCUCAGGGGAAACUUUGAGAUGGCCUUGCAAAGGGUAUGGUAAUAAGCUGACGGACAUGGUCCUAACCACGCAGCCAAGUCCUAAGUCAACAGAUCUUCUGUUGAUAUGGAUGCAGUUCACAGACUAAAUGUCGGUCGGGGAAGAUGUAUUCUUCUCAUAAGAUAUAGUCGGACCUCUCCUUAAUGGGAGCUAGCGGAUGAAGUGAUGCAACACUGGAGCCGCUGGGAACUAAUUUGUAUGCGAAAGUAUAUUGAUUAGUUUUGGAGUACUCGUGGUCG
Summary of the method: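 Pooled colonies went to amplicon sequencing on an Illumina HiSeq 2500 after six replicate transformations. The plates were LB agar with 100 μg/mL carbenicillin, 50 μM IPTG and 0.2% rhamnose, with or without 25 μg/mL kanamycin, incubated overnight at 37°C or 30°C. The E. coli BL21(DE3) library had all eight P1ex-region intron nucleotides randomised, the intron placed in the knt kanamycin-resistance gene on pET-22b(+). DiMSum fitness is the error-weighted combination of replicate fold changes, kanamycin against none, normalised to wild type.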

Row | Sequence | self-splicing fitness (ln) (30 °C) | self-splicing fitness (ln) (37 °C)
1 | UUACAGCAAUAUUACGUCUC | -2.98 ± 0.28 | -2.3 ± 0.22
2 | UUACAGCAAUAUUACGUUCG | -0.549 ± 0.061 | -0.234 ± 0.091
3 | UUACAGCAAUAUUACGUUUU | -3.4 ± 0.11 | -0.802 ± 0.092
4 | UUAGAGCAAUAUUACGAGUA | -3.31 ± 0.29 | -2.1 ± 0.19
5 | UUAGAGCAAUAUUACGAUCC | -2.97 ± 0.41 | –
6 | UUAGAGCAAUAUUACGCACA | -0.745 ± 0.08 | -0.314 ± 0.11
7 | UUAGAGCAAUAUUACGCACU | -1.24 ± 0.23 | -1.78 ± 0.44
8 | UUAGAGCAAUAUUACGCCAA | -0.503 ± 0.16 | -0.0692 ± 0.2
9 | UUAGAGCAAUAUUACGCCGG | -0.922 ± 0.19 | 0.69 ± 0.36
10 | UUAGAGCAAUAUUACGCGUG | -0.924 ± 0.086 | 0.00533 ± 0.11
11 | UUAGAGCAAUAUUACGCGUU | -2.85 ± 0.17 | -1.62 ± 0.17
12 | UUAGAGCAAUAUUACGCUUA | -0.675 ± 0.099 | -0.447 ± 0.12
13 | UUAGAGCAAUAUUACGGACG | -1.73 ± 0.15 | -0.509 ± 0.29
14 | UUAGAGCAAUAUUACGGAGA | -0.579 ± 0.13 | -0.654 ± 0.23
15 | UUAGAGCAAUAUUACGGAGU | -4.12 ± 0.39 | -2.9 ± 0.32
16 | UUAGAGCAAUAUUACGGCGA | 0.109 ± 0.063 | -0.0898 ± 0.074
17 | UUAGAGCAAUAUUACGGCGC | -2.79 ± 0.24 | -0.914 ± 0.25
18 | UUAGAGCAAUAUUACGGGCG | -2.23 ± 0.14 | -1.13 ± 0.17
19 | UUAGAGCAAUAUUACGGGGG | -3.04 ± 0.31 | -1.79 ± 0.36
20 | UUAGAGCAAUAUUACGGGGU | -2.83 ± 0.3 | -2.06 ± 0.46
21 | UUAGAGCAAUAUUACGGGUG | -3.1 ± 0.33 | -0.89 ± 0.2
22 | UUAGAGCAAUAUUACGGUAU | -3.84 ± 0.28 | -1.36 ± 0.19
23 | UUAGAGCAAUAUUACGGUCG | -1.64 ± 0.19 | -0.691 ± 0.31
24 | UUAGAGCAAUAUUACGUAGU | -1.3 ± 0.21 | -3.47 ± 0.42

Row | Sequence | self-splicing fitness (ln) (30 °C) | self-splicing fitness (ln) (37 °C)
25 | UUAGAGCAAUAUUACGUCCA | -1.31 ± 0.22 | -1.71 ± 0.37
26 | UUAGAGCAAUAUUACGUCUC | -3.56 ± 0.25 | -2.82 ± 0.34
27 | UUAGAGCAAUAUUACGUCUU | -1.62 ± 0.097 | -0.85 ± 0.13
28 | UUAGAGCAAUAUUACGUUCG | -1.22 ± 0.1 | -0.767 ± 0.15
29 | UUAUAGCAAUAUUACGAACA | -1.51 ± 0.19 | -0.83 ± 0.17
30 | UUAUAGCAAUAUUACGAAUG | -2.43 ± 0.16 | -0.727 ± 0.17
31 | UUAUAGCAAUAUUACGACCG | -0.514 ± 0.16 | 0.446 ± 0.22
32 | UUAUAGCAAUAUUACGAUAA | -0.51 ± 0.11 | -0.0656 ± 0.12
33 | UUAUAGCAAUAUUACGCAAG | -1.35 ± 0.16 | -1.89 ± 0.19
34 | UUAUAGCAAUAUUACGCACA | -0.698 ± 0.085 | 0.287 ± 0.084
35 | UUAUAGCAAUAUUACGCCAA | – | -0.44 ± 0.25
36 | UUAUAGCAAUAUUACGCCUU | -2.91 ± 0.26 | -0.144 ± 0.2
37 | UUAUAGCAAUAUUACGCGGC | -2.42 ± 0.49 | -2.4 ± 0.37
38 | UUAUAGCAAUAUUACGCUAA | -2.61 ± 0.24 | -2.34 ± 0.19
39 | UUAUAGCAAUAUUACGCUCU | -2.68 ± 0.37 | -0.705 ± 0.46
40 | UUAUAGCAAUAUUACGGACC | -3.38 ± 0.47 | -1.41 ± 0.21
41 | UUAUAGCAAUAUUACGGCGU | -2.88 ± 0.34 | -1.7 ± 0.23
42 | UUAUAGCAAUAUUACGGGAG | -2.25 ± 0.25 | -1.94 ± 0.31
43 | UUAUAGCAAUAUUACGGGUG | -1.68 ± 0.1 | -0.829 ± 0.12
44 | UUAUAGCAAUAUUACGUACU | -1.49 ± 0.18 | -1 ± 0.23
45 | UUAUAGCAAUAUUACGUAGA | -1.34 ± 0.17 | -0.707 ± 0.17
46 | UUAUAGCAAUAUUACGUCAG | -1.61 ± 0.13 | -0.818 ± 0.12
47 | UUAUAGCAAUAUUACGUUGA | -2.54 ± 0.42 | -1.58 ± 0.27
